Measured values as given in PMC3310397.

What was measured:
[1] = target: Tf receptor on Caco-2 cells (human (endogenous in Caco-2)) (UniProt P02786); experiment: radioligand binding
[2] = target: G-CSF receptor on NFS-60 cells (mouse (endogenous in NFS-60)) (UniProt P40223); experiment: radioligand binding
Chain of UniProt P40223 (P40223 26-837): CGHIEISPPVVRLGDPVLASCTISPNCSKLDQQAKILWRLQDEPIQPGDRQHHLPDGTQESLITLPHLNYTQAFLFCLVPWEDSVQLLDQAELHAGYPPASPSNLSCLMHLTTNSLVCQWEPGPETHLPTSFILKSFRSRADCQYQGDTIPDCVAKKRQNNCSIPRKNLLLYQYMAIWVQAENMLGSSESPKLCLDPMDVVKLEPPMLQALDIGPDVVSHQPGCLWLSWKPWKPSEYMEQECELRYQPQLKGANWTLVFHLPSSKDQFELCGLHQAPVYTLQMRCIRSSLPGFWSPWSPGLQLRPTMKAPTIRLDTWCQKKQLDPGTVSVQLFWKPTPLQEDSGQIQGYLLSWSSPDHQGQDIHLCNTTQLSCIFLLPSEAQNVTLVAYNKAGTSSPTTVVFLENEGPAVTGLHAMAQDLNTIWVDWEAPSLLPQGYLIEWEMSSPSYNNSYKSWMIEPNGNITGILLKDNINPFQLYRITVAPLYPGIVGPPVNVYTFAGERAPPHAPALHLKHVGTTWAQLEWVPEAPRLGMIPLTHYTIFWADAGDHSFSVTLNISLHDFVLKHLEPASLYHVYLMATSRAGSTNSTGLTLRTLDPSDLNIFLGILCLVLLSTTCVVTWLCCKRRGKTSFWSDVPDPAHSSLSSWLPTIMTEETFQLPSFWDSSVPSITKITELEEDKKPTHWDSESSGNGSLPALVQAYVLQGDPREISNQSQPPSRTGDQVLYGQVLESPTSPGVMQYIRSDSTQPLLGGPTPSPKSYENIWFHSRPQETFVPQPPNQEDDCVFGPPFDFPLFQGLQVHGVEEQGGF

Chain of UniProt P02786 (P02786 whole entry): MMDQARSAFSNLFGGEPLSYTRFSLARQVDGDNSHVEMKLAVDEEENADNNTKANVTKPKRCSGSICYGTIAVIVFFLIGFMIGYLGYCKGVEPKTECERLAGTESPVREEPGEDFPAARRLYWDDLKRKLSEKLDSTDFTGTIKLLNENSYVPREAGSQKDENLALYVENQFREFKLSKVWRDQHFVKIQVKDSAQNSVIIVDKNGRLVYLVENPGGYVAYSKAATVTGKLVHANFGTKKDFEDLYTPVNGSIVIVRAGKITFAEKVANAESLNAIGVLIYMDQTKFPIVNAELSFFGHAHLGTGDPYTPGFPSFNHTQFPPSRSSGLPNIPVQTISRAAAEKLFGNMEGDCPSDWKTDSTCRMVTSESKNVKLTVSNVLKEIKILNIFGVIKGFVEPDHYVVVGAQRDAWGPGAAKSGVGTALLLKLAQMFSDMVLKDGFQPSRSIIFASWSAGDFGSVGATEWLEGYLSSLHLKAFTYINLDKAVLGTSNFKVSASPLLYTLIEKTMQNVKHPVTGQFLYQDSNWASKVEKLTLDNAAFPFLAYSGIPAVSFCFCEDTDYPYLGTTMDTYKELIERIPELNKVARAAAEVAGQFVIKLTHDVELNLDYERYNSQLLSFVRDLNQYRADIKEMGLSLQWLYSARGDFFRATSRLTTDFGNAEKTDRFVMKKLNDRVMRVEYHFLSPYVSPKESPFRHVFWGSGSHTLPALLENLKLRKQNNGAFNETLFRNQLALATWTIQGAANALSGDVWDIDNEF

Substance | IC50 [1] [nM] | IC50 [2] [nM]
GH-LE-Tf fusion protein (dipeptide linker) | 21.2 | 
recombinant human G-CSF, aglycosylated (Neupogen) (from UniProt P09919-2 31-204) (ligand) |  | 113
G-CSF-LE-Tf fusion protein (dipeptide linker) | 7.5 | 38
